According to paper PMC4003281:

Target: DegP^S210A/R207P (Escherichia coli) (UniProt P0C0V0)
Test: fluorescence polarisation

Substance: ^flC18–58, fluorescent peptide derived from residues 18–58 of lysozyme
- Kd: 1700 nM
